Laboratory results from the DeepSol protein solubility set.

assay: soluble on expression in E. coli; label from the status in PepcDB or PDB records

Row | Sequence | soluble on expression in E. coli
1 | MAHHHHHHMRRCFKLQAPPGVLSILSDLAQPRTSTSYQELLRNSHLPAQPLPFLPPPRWAAELSRVLHRTFPDVVQHHHTRFLQVFVHPSFTTAAGVSGTMQPLVAVGESLLERIGGLWILATFESTRREEYASLLALLTSDTALCRVLRDHWRLEHMVLTDASADLFSRQRLSSTKGLVCWLSSHGNVNGAQSLPEPFGAGCVKAMVAAVLLEHGNDAAEHFVKSEVLPYVL | not soluble
2 | MEALADVGVLASWSPLHKQVEVIDYYPDGRPHHVRATVKILGLVDKEVLEYHWGPDWVCWDADQTFQQHGQHIEYTVKPEGVDRARVRFDITVEPAGPIPGFIVKRASEHVLDAAAKGLQKLIAGAGDQGNAKSLEHHHHHH | not soluble
3 | MWLSGARLVLPDRVLTEGSLRLEGERIAEVREGFVPSGMDLRGFTVVPGLVDLHGDSLERELEPRPGVRLPLELALPSWELRQLAAGITTVYATVAFWEGAGGVREPDQGLRLAQELWGLRSALHVDLRIHARYEVSRPQGEPAVREALRKGWVHLLSFMDHTPGQGQFHDLETYVRYMARHHGRPEAEVYDEVKRLSTRATWEGLEALAAEALAKSIPLASHDDDTPDRVALMARLGVTVSEFPVRLEAAKEAKVRGMTVVMGAPNALRGGSHHGNLSALDALREGLLDALATDYLPEAALRAPFRLAAQGLLDLPLALALVTRRPALAVGLADRGALAPGLRADLVVLKESPFSVLGAFVAGKPVFVGGELAHALA | soluble
4 | QGDLLLAQYTRAYGYYNPAYAGMRKEIFITALHNRQWEGMPRSPKSFVVLADAPIRFFDREHGVGVRVVTETRGLFAINELMGQYAFKQKLFGGDLSVALQAGLVNTAFDGTKVELETENDPAIPLTKVSGKAFDIGAGIYYRRKE | not soluble
5 | MKQYLELMQKVLDEGTQKNDRTGTGTLSIFGHQMRFNLQDGFPLVTTKRCHLRSIIHELLWFLQGDTNIAYLHENNVTIWDEWADENGDLGPVYGKQWRAWPTPDGRHIDQITTVLNQLKNDPDSRRIIVSAWNVGELDKMACAPSHAFFQFYVADGKLSCQLYQRSCDVFLGLPFNIASYALLVHMMAQQCDLEVGDFVWTGGDTHLYSNHMDQTHLQLSREPRPLPKLIIKRKPESIFDYRFEDFEIEGYDPHPGIKAPVAI | soluble
6 | GPGSMRSASAYGLDGQARSLCSLYHPSLNSQECHRFLIGTANPSADNKIHLIEYQDDTKSLECATVWSHNDPVMGLWCSPSLSADSLLAVSSLRKLVVFQISENVLNEPKCIATMNKNYSRVLWDLDGLQREFRAVHQNTLTTVFLSSSKLGSETVNYTSSGGFIRCAALAPYDPNLCLISCDSDGLQLVDLRSKKASSFATTKYSHGFGYTTAVDFDRLKPGQFLSAGTDGYVYIHDIRYNTSCSLAILRHMKAHEHAVQSCSFNSFRDELVLSCSSDQTLKLWDVEHNNEPKCLRRLADYGDSVVALCWSGNSPWVFAGLSFNGKLLVDTVPNEKKMSILLDEKKWCET | not soluble
7 | PISFGLSVRKSLAKGFSVETGLTYTLLSSDAKFADSDQKTEQKLHYLGIPLKANWNFLDKKLFTLYVSGGGMIEKCVYGKLGTEKETVKPLQFSVSGAVGAQFNATKRVGIYVEPGVAYFFDDGSDVQTIRKENPFNFNIQAGIRLTY | not soluble
8 | MSLYAAYAGNLDPRLMTRRAPHSPLRATGWLNDWRLTFGGEHMGWEGALATIVEAPRSQVFVALYDIAPMDEDSMDRWEGVGLDIYRRMRVRVHTLEGEEAAWVYVLNGYEGGLPSARYLGELADAAESAGAPHDYVMELRKRPCLEHHHHHH | soluble
9 | MSLEISNRLKSISEVMDRCEIAADIGTDHAYLPIYLIKNNLCKRFIASDVNAGPLKKAINNINKYKLEDKIECRLGSGLNVLKLEEVDVVVIAGMGGNLIRDIIEERLDIFKKLKYAVLQPVQNPEILREYLIKRGFNIIEEQLCIDESKYYEIIKVCYDSKIEDKDDVYYEIGDKLIDMKHPLLKEYINYKIRKYDKIYKNISEESLNALSRKNELSIKIRKLKELLSCLEGHHHHHH | soluble
10 | MAHHHHHHMAAADQLRYAAQMIELARSEEREDGNPLTAARCYTTAMEVIASEASKRAAMIESNEARRFFLFQVRSKLEMYHERAELLLQVANGSGLLDKPSLSNGDASALQTNYPPALFASAVANEKSSSGNGGVASCSTGGGVSVLGIPLQPQQMAPSAPPTQTQSSYGDFKEPPMSCYLKPDDDATAEPPPVTPELNLDELMKNLGAPPEL | not soluble
11 | MDYLVKALAYDGKVRAYAARTTDMVNEGQRRHGTWPTASAALGRTMTASLMLGAMLKGDDKLTVKIEGGGPIGAIVADANAKGEVRAYVSNPQVHFDLNEQGKLDVRRAVGTNGTLSVVKDLGLREFFTGQVEIVSGELGDDFTYYLVSSEQVPSSVGVGVLVNPDNTILAAGGFIIQLMPGTDDETITKIEQRLSQVEPISKLIQKGLTPEEILEEVLGEKPEILETMPVRFHCPCSKERFETAILGLGKKEIQDMIEEDGQAEAVCHFCNEKYLFTKEELEGLRDQTTR | soluble
12 | GMSLAPWRGAIAHALHRNRSLVYARYLQLATVQPNGRPANRTLVFRGFLEDTNQLRFITDTRSAKADQIQQQPWAEICWYFPNTREQFRMAGDLTLISSDDSHQDLQPARIAMWQELSDAARLQFGWPYPGKPRIKESGAFEPSPPDPIEPVPNFCLLLLDPVQVDHLELRGEPQNRWLYHRNDQQEWSSEAINP | soluble
13 | MGSDKIHHHHHHMKRSEKKSMSSALKNGIMERTQPEKVVQMQGTADLSTSKLGTKKYWDELYALELENFRRNPQDTGDCWFSDSDAEQKMIDFLVDNIGAYRISENASVVDLGTGNGHMLFELHQTEFQGKLVGIDYSEESVKLASNIAEATGVDNFISFQQADIFSGDWKPGKYDIVLDKGTLDAISLSGMKINGKLDVVDVYAGVVERILKKDGIFLITSCNFTQDELVKIIETDNLKMWKTIKYPVFQFGGVQGATICSVAFVKQN | not soluble
14 | SEAQQKNYTFRCLQMSSFANRSWSRTDSVVWLGDLQTHRWSNDSATISFTKPWSQGKLSNQQWEKLQHMFQVYRVSFTRDIQELVKMMSPKEDYPIEIQLSAGCEMYPGNASESFLHVAFQGKYVVRFWGTSWQTVPGAPSWLDLPIKVLNADQGTSATVQMLLNDTCPLFVRGLLEAGKSDLEKQEKPVAWLSSVPSSAHGHRQLVCHVSGFYPKPVWVMWMRGDQEQQGTHRGDFLPNADETWYLQATLDVEAGEEAGLACRVKHSSLGGQDIILYWGSLHHILDAQKMVWNHRHHHHHH | soluble
15 | MSEMTPREIVSELDQHIIGQADAKRAVAIALRNRWRRMQLQEPLRHEVTPKNILMIGPTGVGKTEIARRLAKLANAPFIKVEATKFTEVGYVGKEVDSIIRDLTDSAMKLVRQQEIAKNRARAEDVAEERILDALLPPAKNQWGEVENHDSHSSTRQAFRKKLREGQLDDKEIEIDVSAGVSMGVEIMAPPGMEEMTNQLQSLFQNLGSDKTKKRKMKIKDALKALIDDEAAKLINPEELKQKAIDAVEQNGIVFIDEIDKICKKGEYSGADVSREGVQRDLLPLVEGSTVSTKHGMVKTDHILFIASGAFQVARPSDLIPELQGRLPIRVELTALSAADFERILTEPHASLTEQYKALMATEGVNIAFTTDAVKKIAEAAFRVNEKTENIGARRLHTVMERLMDKISFSASDMNGQTVNIDAAYVADALGEVVENEDLSRFIL | soluble
16 | MAHHHHHHMSRLVMTAPPSLPPFLLLSGASSPPPPPISHTHTHTHTHTHTAMASLAHLSTPLPSEPSAAAPPPAASAPAGALHLERFLESVLKQNLDTVLSQRDELYATVAQCAQLRWLMDDMQALSRYHSFIEASTAAETAAAVPLSALSPVASGSPNASLPLMSKRAQADAYKPPQKNKVLVDLGNHFYTQGVVKDAGVLFMNMGCGVVLPMSLDEAREFLRKKEAVVRRMIMNKSKEALRIKYRIRLVTEAIARLHERHLGL | not soluble
17 | MGSDKIHHHHHHMPSLKLSLTGLQIIKQARSEKGWTIDNPCWLEQASQVLEPGRNWENAEVFAAGVSLATWKRFLKGDAIDASVFKAFCQVLGLNWQDLVERPPNSFIIGTTQIPNIPLFFGRRYELTTLSQAIEQGTRLIAITGIGGMGKTALATKLVESRSSHFSQTLWFSFHHNPPAKDKIPTLVPQTLMVFDGWDGILGGNRGGQYRPEYEPYADFLRTVVQTTHTSCVIITSREQPEGLNILGAGGAVIFPLGGLMEGAIELLQHHQLTFNAQQWITLVNQYGGNPLFLNMAANFIHELFAGDVGEFLASGTLVAGEFAPLVTQWLKQISTLEQILIKSLATKVQGFTRQEILLHLASRAANGDILAALLSLKRRGLIETMKDGELERFYLQPVILKCVQRLF | not soluble
18 | MSLKRVIGYIRVSTDNQDLERQRVLIRKYCENKGYSLLRIEEDYAISGTVSNRNGLNSILNITNSVADMVVVSELSRLSRQDDIFETLTQIHTIIRNVDLVILDEPDKVYEAGKTIILSDFLMLAIKAYGAADERKKIVSRMTTGKDSKVQAFPLMLTDSNIPTGFKAVPNPNYIKGATPKMLLVEDEERMQLVRDIFNYVANGLSLGKTAEKLNMLGYRTARNKPFYEQSIRTIINDSIYNGVRYWKGMKLELPVKFISDEIWNLAHKKVQENKNYSGEGHHHHHH | soluble
19 | GMKYKAAIFDMDGTILDTSADLTSALNYAFEQTGHRHDFTVEDIKNFFGSGVVVAVTRALAYEAGSSRESLVAFGTKDEQIPEAVTQTEVNRVLEVFKPYYADHCQIKTGPFPGILDLMKNLRQKGVKLAVVSNKPNEAVQVLVEELFPGSFDFALGEKSGIRRKPAPDMTSECVKVLGVPRDKCVYIGDSEIDIQTARNSEMDEIAVNWGFRSVPFLQKHGATVIVDTAEKLEEAILGE | soluble
20 | MGSDKIHHHHHHMKIGVFSVLFYDKNFEDMLDYVAESGLDMIEVGTGGNPGDKFCKLDELLENEDKRQAFMKSITDRGLQISGFSCHNNPISPDPIEAKEADETLRKTIRLANLLDVPVVNTFSGIAGSDDTAKKPNWPVTPWPTAYSEIYDYQWNEKLIPYWQDLAEFAKEQDVKIAIELHAGFLVHTPYTMLKLREATNEYIGANLDPSHLWWQGIDPIAAIRILGQANAIHHFHAKDTYINQENVNMYGLTDMQPYGNVATRAWTFRTVGYGHSPYVWADIISQLIINGYDYVLSIEHEDPIMSVEEGFQKACQTLKSVNIYDKPADMWWA | not soluble
21 | MNNASGGTHSKGTATTGGTTTQAAKTNLTTTAAKGRTATPSLDEETRKRLMVEGKCFHCFKPGHISPNYLEKQIKQLKVLEQPVPEEQGVSENN | not soluble
22 | MVGVRMTKKVLIVEDNELNMKLFHDLLEAQGYETLQTREGLSALSIARENKPDLILMDIQLPEISGLEVTKWLKEDDDLAHIPVVAVTAFAMKGDEERIREGGCEAYISKPISVVHFLETIKRLLERQPA | soluble
23 | MGSDKIHHHHHHMTGTESGASGGQPANSDDWDAVTARREAEALIIDVDGFEGPLDLLLTLSRTQKVDLRRISILALTEQYLVFIEKARQLRIELAADYLVMAAWLAFLKSKLLLPPEPGEEGPSGEDLAAHLAFQLERLAAMRDCAARLMAQDRLGRDRFVRGQTQAMTTNRKVIYTAGLLDLMQAYARIRTKDEFRPFVMDREAVLTMEEALDRLRGMVGYMGDWADLMSYLPDGWTTDPAKRRSAAAANFAAALELAKAGRVEIRQADTFSPIQLRRKEP | not soluble
